Biological target: T1, Hof1, Q05080
T1 sequence (Q05080 590-669, looked up): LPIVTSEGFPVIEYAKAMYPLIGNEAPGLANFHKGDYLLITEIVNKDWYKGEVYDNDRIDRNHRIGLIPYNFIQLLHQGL
Assay: SPOT array
Conditions: median of control spots 4086

In order of falling SPOT intensity:
1. ALRRRLPVTRSKINW  14
2. RSLRKRPTSPSISGS  13
3. QHQQRQPKRPKRYSL  3
4. GRLRPKRIAPWHLIQ  1

Biological target: T2, Abp1, P15891
T2 sequence (P15891 535-592, looked up): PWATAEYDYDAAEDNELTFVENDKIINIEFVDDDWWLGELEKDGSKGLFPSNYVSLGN
Assay: SPOT array
Conditions: median of control spots 935

In order of falling SPOT intensity:
1. RSLRKRPTSPSISGS  224
2. ALRRRLPVTRSKINW  134
3. QHQQRQPKRPKRYSL  106
4. GRLRPKRIAPWHLIQ  25

Biological target: T3, Pin3, Q06449
T3 sequence (Q06449 53-122, looked up): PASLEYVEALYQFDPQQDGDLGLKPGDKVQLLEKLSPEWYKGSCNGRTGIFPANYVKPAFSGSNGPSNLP
Assay: SPOT array
Conditions: median of control spots 2171

In order of rising SPOT intensity:
1. QHQQRQPKRPKRYSL  2
2. GRLRPKRIAPWHLIQ  5
3. RSLRKRPTSPSISGS  8
4. ALRRRLPVTRSKINW  10

Biological target: T4, Sla1-3, P32790
T4 sequence (P32790 344-424, looked up): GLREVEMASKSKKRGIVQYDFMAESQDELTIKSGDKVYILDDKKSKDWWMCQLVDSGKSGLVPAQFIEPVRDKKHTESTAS
Assay: SPOT array
Conditions: median of control spots 5475

In order of falling SPOT intensity:
1. QHQQRQPKRPKRYSL  78
2. ALRRRLPVTRSKINW  73
3. RSLRKRPTSPSISGS  44
4. GRLRPKRIAPWHLIQ  41

Biological target: Bem1-1, P29366
Sequence (P29366 55-141): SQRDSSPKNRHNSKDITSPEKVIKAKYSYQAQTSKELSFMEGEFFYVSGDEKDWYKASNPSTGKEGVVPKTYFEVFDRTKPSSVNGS
Assay: SPOT array
Conditions: median of control spots 4282

In order of rising SPOT intensity:
1. GRLRPKRIAPWHLIQ  0
2. ALRRRLPVTRSKINW  0
3. RSLRKRPTSPSISGS  0
4. QHQQRQPKRPKRYSL  1

Biological target: T5, Hse1, P38753
T5 sequence (P38753 208-285, looked up): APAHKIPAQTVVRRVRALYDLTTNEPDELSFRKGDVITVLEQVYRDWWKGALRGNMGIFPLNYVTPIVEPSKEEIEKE
Assay: SPOT array
Conditions: median of control spots 1727

In order of rising SPOT intensity:
1. GRLRPKRIAPWHLIQ  9
2. QHQQRQPKRPKRYSL  33
3. ALRRRLPVTRSKINW  35
4. RSLRKRPTSPSISGS  55

Biological target: Sho1, P40073
Sequence (P40073 287-367): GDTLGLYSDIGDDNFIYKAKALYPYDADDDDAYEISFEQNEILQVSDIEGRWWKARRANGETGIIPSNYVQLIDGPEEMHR
Assay: SPOT array
Conditions: median of control spots 1148

In order of rising SPOT intensity:
1. GRLRPKRIAPWHLIQ  83
2. QHQQRQPKRPKRYSL  115
3. ALRRRLPVTRSKINW  196
4. RSLRKRPTSPSISGS  295

Biological target: GST
Assay: SPOT array
Conditions: median of control spots 978

In order of rising SPOT intensity:
1. GRLRPKRIAPWHLIQ  0
2. ALRRRLPVTRSKINW  2
3. RSLRKRPTSPSISGS  3
4. QHQQRQPKRPKRYSL  8

Biological target: T6, Lsb1, P53281
T6 sequence (P53281 45-122, looked up): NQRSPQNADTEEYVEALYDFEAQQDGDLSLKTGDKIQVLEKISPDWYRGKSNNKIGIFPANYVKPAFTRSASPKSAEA
Assay: SPOT array
Conditions: median of control spots 388

In order of falling SPOT intensity:
1. ALRRRLPVTRSKINW  46
2. RSLRKRPTSPSISGS  26
3. QHQQRQPKRPKRYSL  5
4. GRLRPKRIAPWHLIQ  0

Biological target: T7, Sla1-2, P32790
T7 sequence (P32790 60-140, looked up): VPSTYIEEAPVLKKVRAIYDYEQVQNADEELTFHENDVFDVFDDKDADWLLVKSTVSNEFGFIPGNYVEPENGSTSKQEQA
Assay: SPOT array
Conditions: median of control spots 712

In order of falling SPOT intensity:
1. QHQQRQPKRPKRYSL  5
2. RSLRKRPTSPSISGS  1
3. GRLRPKRIAPWHLIQ  0
4. ALRRRLPVTRSKINW  0

Biological target: T8, Bzz1-1, P38822
T8 sequence (P38822 478-572, looked up): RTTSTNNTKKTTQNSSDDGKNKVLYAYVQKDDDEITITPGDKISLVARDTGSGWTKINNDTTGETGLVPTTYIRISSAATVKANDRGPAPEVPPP
Assay: SPOT array
Conditions: median of control spots 4446

In order of rising SPOT intensity:
1. GRLRPKRIAPWHLIQ  0
2. QHQQRQPKRPKRYSL  0
3. ALRRRLPVTRSKINW  0
4. RSLRKRPTSPSISGS  0

Biological target: T9, Boi1, P38041
T9 sequence (P38041 1-86, looked up): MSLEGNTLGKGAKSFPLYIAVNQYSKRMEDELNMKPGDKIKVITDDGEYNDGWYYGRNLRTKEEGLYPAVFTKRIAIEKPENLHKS
Assay: SPOT array
Conditions: median of control spots 1162

In order of rising SPOT intensity:
1. GRLRPKRIAPWHLIQ  2
2. RSLRKRPTSPSISGS  5
3. QHQQRQPKRPKRYSL  13
4. ALRRRLPVTRSKINW  13

Biological target: T10, Fus1, P11710
T10 sequence (P11710 432-512, looked up): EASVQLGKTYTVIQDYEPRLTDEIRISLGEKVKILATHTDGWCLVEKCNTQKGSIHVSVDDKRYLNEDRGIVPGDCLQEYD
Assay: SPOT array
Conditions: median of control spots 1200

In order of rising SPOT intensity:
1. GRLRPKRIAPWHLIQ  6
2. ALRRRLPVTRSKINW  25
3. RSLRKRPTSPSISGS  44
4. QHQQRQPKRPKRYSL  55

Biological target: Bem1-2, P29366
Sequence (P29366 139-227): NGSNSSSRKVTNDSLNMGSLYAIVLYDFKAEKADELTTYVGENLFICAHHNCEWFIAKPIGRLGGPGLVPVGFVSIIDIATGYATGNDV
Assay: SPOT array
Conditions: median of control spots 4347

In order of falling SPOT intensity:
1. QHQQRQPKRPKRYSL  147
2. ALRRRLPVTRSKINW  7
3. GRLRPKRIAPWHLIQ  6
4. RSLRKRPTSPSISGS  5

Biological target: T11, Pex13, P80667
T11 sequence (P80667 295-386, looked up): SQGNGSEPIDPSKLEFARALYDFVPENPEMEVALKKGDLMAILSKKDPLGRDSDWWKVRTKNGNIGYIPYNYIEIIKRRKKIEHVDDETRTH
Assay: SPOT array
Conditions: median of control spots 1341

In order of rising SPOT intensity:
1. ALRRRLPVTRSKINW  4
2. RSLRKRPTSPSISGS  5
3. QHQQRQPKRPKRYSL  6
4. GRLRPKRIAPWHLIQ  8

Biological target: T12, Bbc1, P47068
T12 sequence (P47068 1-78, looked up): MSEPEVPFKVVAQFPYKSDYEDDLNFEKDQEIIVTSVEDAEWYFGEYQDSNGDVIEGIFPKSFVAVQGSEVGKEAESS
Assay: SPOT array
Conditions: median of control spots 796

In order of falling SPOT intensity:
1. ALRRRLPVTRSKINW  245
2. QHQQRQPKRPKRYSL  211
3. RSLRKRPTSPSISGS  175
4. GRLRPKRIAPWHLIQ  57

Biological target: T13, Lsb4, P32793
T13 sequence (P32793 402-468, looked up): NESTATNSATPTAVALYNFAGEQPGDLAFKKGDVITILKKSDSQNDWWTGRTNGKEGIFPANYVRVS
Assay: SPOT array
Conditions: median of control spots 397

In order of falling SPOT intensity:
1. QHQQRQPKRPKRYSL  101
2. ALRRRLPVTRSKINW  7
3. RSLRKRPTSPSISGS  5
4. GRLRPKRIAPWHLIQ  0

Biological target: Myo3, P36006
Assay: SPOT array
Conditions: median of control spots 468

In order of rising SPOT intensity:
1. GRLRPKRIAPWHLIQ  0
2. QHQQRQPKRPKRYSL  2
3. RSLRKRPTSPSISGS  9
4. ALRRRLPVTRSKINW  10

Biological target: T14, Cyk3, Q07533
T14 sequence (Q07533 1-83, looked up): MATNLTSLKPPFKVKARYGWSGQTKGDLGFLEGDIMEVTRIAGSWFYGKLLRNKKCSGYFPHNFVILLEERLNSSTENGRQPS
Assay: SPOT array
Conditions: median of control spots 1451

In order of rising SPOT intensity:
1. GRLRPKRIAPWHLIQ  1
2. QHQQRQPKRPKRYSL  1
3. RSLRKRPTSPSISGS  1
4. ALRRRLPVTRSKINW  2

Biological target: T15, Boi2, P39969
T15 sequence (P39969 32-116, looked up): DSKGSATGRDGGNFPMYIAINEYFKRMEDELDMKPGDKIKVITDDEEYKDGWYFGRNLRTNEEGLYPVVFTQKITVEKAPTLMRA
Assay: SPOT array
Conditions: median of control spots 1161

In order of rising SPOT intensity:
1. RSLRKRPTSPSISGS  0
2. GRLRPKRIAPWHLIQ  1
3. ALRRRLPVTRSKINW  1
4. QHQQRQPKRPKRYSL  4

Biological target: T16, Bud14, P27637
T16 sequence (P27637 247-328, looked up): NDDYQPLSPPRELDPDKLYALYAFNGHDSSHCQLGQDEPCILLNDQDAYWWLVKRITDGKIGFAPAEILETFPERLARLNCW
Assay: SPOT array
Conditions: median of control spots 956

In order of falling SPOT intensity:
1. RSLRKRPTSPSISGS  22
2. QHQQRQPKRPKRYSL  8
3. ALRRRLPVTRSKINW  6
4. GRLRPKRIAPWHLIQ  3

Biological target: T17, Nbp2, Q12163
T17 sequence (Q12163 103-180, looked up): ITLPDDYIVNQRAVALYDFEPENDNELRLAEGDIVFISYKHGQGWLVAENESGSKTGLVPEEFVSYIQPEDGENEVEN
Assay: SPOT array
Conditions: median of control spots 357

In order of falling SPOT intensity:
1. RSLRKRPTSPSISGS  198
2. ALRRRLPVTRSKINW  149
3. QHQQRQPKRPKRYSL  21
4. GRLRPKRIAPWHLIQ  10

Biological target: T18, Bzz1-2, P38822
T18 sequence (P38822 568-633, looked up): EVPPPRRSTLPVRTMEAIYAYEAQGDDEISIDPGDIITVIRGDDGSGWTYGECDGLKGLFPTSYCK
Assay: SPOT array
Conditions: median of control spots 4538

In order of falling SPOT intensity:
1. RSLRKRPTSPSISGS  21
2. QHQQRQPKRPKRYSL  17
3. ALRRRLPVTRSKINW  7
4. GRLRPKRIAPWHLIQ  4

Biological target: T19, Lsb3, P43603
T19 sequence (P43603 385-451, looked up): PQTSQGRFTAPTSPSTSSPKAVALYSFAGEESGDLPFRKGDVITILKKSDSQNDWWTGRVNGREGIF
Assay: SPOT array
Conditions: median of control spots 406

In order of falling SPOT intensity:
1. QHQQRQPKRPKRYSL  36
2. RSLRKRPTSPSISGS  14
3. ALRRRLPVTRSKINW  4
4. GRLRPKRIAPWHLIQ  0

Biological target: Rvs167, P39743
Sequence (P39743 419-482): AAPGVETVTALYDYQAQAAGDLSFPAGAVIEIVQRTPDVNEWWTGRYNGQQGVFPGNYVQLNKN
Assay: SPOT array
Conditions: median of control spots 2707

In order of rising SPOT intensity:
1. QHQQRQPKRPKRYSL  0
2. RSLRKRPTSPSISGS  2
3. GRLRPKRIAPWHLIQ  8
4. ALRRRLPVTRSKINW  8

Biological target: T20, Myo5, Q04439
T20 sequence (Q04439 1072-1160, looked up): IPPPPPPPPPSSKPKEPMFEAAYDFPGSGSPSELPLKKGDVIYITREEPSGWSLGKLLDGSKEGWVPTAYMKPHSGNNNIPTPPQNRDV
Assay: SPOT array
Conditions: median of control spots 471

In order of falling SPOT intensity:
1. QHQQRQPKRPKRYSL  2
2. RSLRKRPTSPSISGS  2
3. GRLRPKRIAPWHLIQ  0
4. ALRRRLPVTRSKINW  0

Biological target: T21, Cdc25, P04821
T21 sequence (P04821 50-136, looked up): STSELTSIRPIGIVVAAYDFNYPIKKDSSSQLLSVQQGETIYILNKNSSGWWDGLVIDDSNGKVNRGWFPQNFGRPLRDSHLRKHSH
Assay: SPOT array
Conditions: median of control spots 969

In order of falling SPOT intensity:
1. RSLRKRPTSPSISGS  52
2. ALRRRLPVTRSKINW  46
3. QHQQRQPKRPKRYSL  22
4. GRLRPKRIAPWHLIQ  0

Source: paper PMC2756588
